The values below come from patent US6258556, “cDNA and genomic clones encoding human µ opiate receptor and the purified gene product” (The United States of America as represented by the …, dated 2001).

Assay [1] concerns the target human µ opiate receptor (human). Kind of assay: displacement of [3H]DAMGO from COS cells expressing hµOR1; paragraph 40 says 'low affinities', CLM-00014 calls the value a KD. How it is done: (§1) COS cells were transfected by electroporation with 20 µg/10^7 cells of plasmid pcDNA1hµOR1, grown for two to three days and tested for opiate receptor expression by radioligand binding as described, except that whole cell suspensions were used. Adenyl cyclase activities were assessed by radioimmunoassay as described. Cells transfected with the pcDNA1 vector alone served as negative controls.

Assay [2] has the same target. The assay can be described thus: saturation radioligand binding, whole COS cells transfected with pcDNA1hµOR1. Here is the method: as §1
Assay [3] has the same target. The assay can be described thus: [3H]DAMGO binding to COS cells expressing hµOR1, with against without 50 µM Gpp(NH)p. Here is the method: as §1
The target is the same in assay [4]. Kind of assay: [3H]DAMGO binding to COS cells expressing hµOR1, with sodium chloride as low as 5 mM; CLM-00019 ties this to DAMGO. How it is done: as §1
Assay [5] has the same target. Kind of assay: displacement of [3H]DAMGO from COS cells expressing hµOR1; 'low affinities of less than 100 nM' is read as weaker than 100 nM. How it is done:
as §1

Non-standard residues stand in square brackets, D forms with d. No end group written: not given here. *: point of attachment. NMeF = CN[C@@H](Cc1ccccc1)C(=O)O; NHCH2CH2OH = OCCN*

Turning to YGGFLRRIRPKLKWDNQ [dynorphin A 1-17], the Kd in assay [1] worked out at 284 nM. This lies in the sub-micromolar range.

B1: (D-ala^2, N-methyl-phe^4, glyol^5) enkephalin (peptide)
peptide: Y[dA]G[NMeF][NHCH2CH2OH]
modifications: not fully specified (C-terminus); printed as (D-ala^2, N-methyl-phe^4, glyol^5) enkephalin; also: [3H] label in binding assays
On to B1, for which binding in assay [2] was put at a Kd of 1.2 nM. For the same molecule, in assay [3], the “fold reduction of affinity with 50 µM Gpp(NH)p” value was above 3 fold. In addition, the “fold reduction of binding affinity with 5 mM sodium chloride” value in assay [4] worked out at 2 fold. Molecule YXGFX (D-penicillamine at 2 and at 5 (written X)) [DPDPE (D-pen^2, D-pen^5 enkephalin)] came in with a Kd in assay [5] above 100 nM.
